Test [1] addresses T1, TGF-β1 (human, UniProt P01137 279-390).
T1 construct: also called human TGF-β1; TGF-β1 protein
Description: indirect ELISA, TGF-β1 coated.

Test [2] deals with T1, TGF-β1. Briefly: indirect ELISA, TGF-β1 coated. The source holds these as a separate data set. Background: ELISA stands for enzyme-linked immunosorbent assay.
Test [3] addresses T1, TGF-β1. Briefly: competitive ELISA vs TGF-βRII-His-Biotin, TGF-β1 coated.
Test [4] has as its target T2, human TIGIT-hFc (human, UniProt Q495A1 22-141, limits assumed).
T2 construct: Screening antigen of the hybridoma ELISA; not shown: Fc protein fragment of human IgG
T2 sequence (looked up): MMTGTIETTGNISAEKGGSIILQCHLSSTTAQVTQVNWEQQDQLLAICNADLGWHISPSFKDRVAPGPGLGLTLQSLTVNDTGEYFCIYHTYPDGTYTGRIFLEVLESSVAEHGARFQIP
Briefly: indirect ELISA, hybridoma screening.

Test [5] concerns the target T3, human TIGIT-mFc (human; mouse, UniProt Q495A1 22-141, limits assumed).
T3 construct: not shown: Fc protein fragment of mouse IgG
T3 sequence (looked up): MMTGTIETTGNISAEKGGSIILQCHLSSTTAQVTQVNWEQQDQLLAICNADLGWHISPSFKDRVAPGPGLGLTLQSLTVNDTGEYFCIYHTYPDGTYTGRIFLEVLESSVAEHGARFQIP
Description: competitive ELISA vs CD155-hFc-Biotin, TIGIT-mFc coated.

Test [6] addresses T4, TIGIT on the cell membrane (293T-TIGIT, Jurkat-TIGIT-NFAT-Luc cells) (human, UniProt Q495A1 22-244).
T4 construct: whole, on cells; also called cell membrane surface antigen TIGIT
T4 sequence (looked up): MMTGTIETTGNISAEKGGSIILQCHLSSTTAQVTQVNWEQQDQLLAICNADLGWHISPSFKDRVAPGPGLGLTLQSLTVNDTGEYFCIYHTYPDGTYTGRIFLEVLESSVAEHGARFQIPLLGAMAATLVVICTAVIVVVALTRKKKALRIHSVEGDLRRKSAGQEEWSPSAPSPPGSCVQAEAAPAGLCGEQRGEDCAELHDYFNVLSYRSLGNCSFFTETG
Briefly: FACS, 293T-TIGIT cells. On the technique in general: In flow cytometry, cells or beads pass a laser one at a time.

In test [7] the target is T3, human TIGIT-mFc. Description: indirect ELISA, TIGIT-mFc captured on plate.
For test [8], the target named is T4, TIGIT on the cell membrane (293T-TIGIT, …). Briefly: competitive FACS vs CD112-mFc, 293T-TIGIT cells.
Test [9] shares this target. Description: competitive FACS vs CD155-mFc, 293T-TIGIT cells.

B1: TGF-βRII-mFc (Fc fusion, UniProt P37173 24-159, looked up)
chain: IPPHVQKSVNNDMIVTDNNGAVKFPQLCKFCDVRFSTCDNQKSCMSNCSITSICEKPQEVCVAVWRKNDENITLETVCHDPKLPYHDFILEDAASPKCIMKEKKKPGETFFMCSCSSDECNDNIIFSEEYNTSNPD
notes: also called TGF-βR2-mFc; not shown: Fc protein fragment of mouse IgG
On to B1, for which the results for the EC50 in test [1], in [2] and in [3] were 0.356 nM, 0.271 nM and 6.47 nM, respectively.

B2: 26B12 (antibody, V domains shown)
VH: EVQLQESGPGLVKPSQSLSLTCTVTGHSFTSDYAWNWIRQFPGNRLEWMGYISYSDSTNYNPSLKSRISITRDTSKNQFFLQMNSVTTEDTATYYCARLDYGNYGGAMDYWGQGTSVTVSS
VL: DIVLTQSHEFMSTSLRDRVSITCKSSQHVSTAVAWYQQKPGQSPKLLIYSASYRYTGVPDRFTGSGSGTDFTFTISSVKAEDLAVYYCQQHYITPWTFGGGTKLEIK
notes: Murine hybridoma antibody; also called anti-TIGIT antibody 26B12; monoclonal antibody secreted by hybridoma cell line LT019
As to B2, the binding result in [4] is recorded as “binds”.

B3: 26B12H2L2(hG4DM) (antibody, human IgG4 S228P, kappa, F234A L235A)
heavy: not shown
light: DIQMTQSPSSLSASVGDRVTITCRSSQHVSTALAWYQQKPGKSPKLLIYSASSRYSGVPDRFSGSGSGTDFTFTISSLQPEDFATYYCQQHYITPWTFGGGTKLEIKRTVAAPSVFIFPPSDEQLKSGTASVVCLLNNFYPREAKVQWKVDNALQSGNSQESVTEQDSKDSTYSLSSTLTLSKADYEKHKVYACEVTHQGLSSPVTKSFNRGEC
notes: Humanized anti-TIGIT antibody, IgG4 with F234A and L235A (EU numbering)
B3 came in with an EC50 in test [5] of 1.42 nM.

B4: RG6058(hG4) (antibody, V domains shown)
VH: EVQLQQSGPGLVKPSQTLSLTCAISGDSVSSNSAAWNWIRQSPSRGLEWLGKTYYRFKWYSDYAVSVKGRITINPDTSKNQFSLQLNSVTPEDTAVFYCTRESTTYDLLAGPFDYWGQGTLVTVSS
VL: not shown
notes: Positive control anti-TIGIT antibody from CN108290946A; also called RG6058(hG4WT)
Regarding B4, the figures for the EC50 in test [6], in test [7] and in [5] were 1.61 nM, 0.055 nM and 1.68 nM, respectively.

B5: Tiragolumab (antibody, human IgG1, kappa, V domains shown)
VH: EVQLQQSGPGLVKPSQTLSLTCAISGDSVSSNSAAWNWIRQSPSRGLEWLGKTYYRFKWYSDYAVSVKGRITINPDTSKNQFSLQLNSVTPEDTAVFYCTRESTTYDLLAGPFDYWGQGTLVTVSS
VL: not shown
notes: Positive control anti-TIGIT antibody; also called RG6058(hG1WT)
Consider B5, for which the EC50 in test [8] came to 0.837 nM; in test [9] it was 1.28 nM.

One may read the EC50 as the concentration that produces a half-maximal response.

For the origin of these results see patent EP4671269A1 (Akeso Biopharma Co., Ltd., dated 2025).
